Columns and labels:
[1] = target: U1 snRNP (lacking the Sm ring), reconstituted (human, UniProt P08621-1 1-216; P09012 1-282; P09234 1-159); test: pull-down
[2] = target: U1–70K (SNRNP70) 1–216, recombinant (human, UniProt P08621-1 1-216); test: pull-down
U1–70K (SNRNP70) 1–216, recombinant, sequence (P08621 1-216): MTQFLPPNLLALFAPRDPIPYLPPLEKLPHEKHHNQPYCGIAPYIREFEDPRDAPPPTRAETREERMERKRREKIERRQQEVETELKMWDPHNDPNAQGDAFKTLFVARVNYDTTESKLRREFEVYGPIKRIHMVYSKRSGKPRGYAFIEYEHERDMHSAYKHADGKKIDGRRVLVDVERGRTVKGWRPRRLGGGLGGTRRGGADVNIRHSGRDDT

U1 snRNP (lacking the Sm ring), reconstituted, sequence (P08621 1-216, chain 1 of 3): as the sequence (P08621 1-216) above
U1 snRNP (lacking the Sm ring), reconstituted, sequence (P09012 whole entry, chain 2 of 3): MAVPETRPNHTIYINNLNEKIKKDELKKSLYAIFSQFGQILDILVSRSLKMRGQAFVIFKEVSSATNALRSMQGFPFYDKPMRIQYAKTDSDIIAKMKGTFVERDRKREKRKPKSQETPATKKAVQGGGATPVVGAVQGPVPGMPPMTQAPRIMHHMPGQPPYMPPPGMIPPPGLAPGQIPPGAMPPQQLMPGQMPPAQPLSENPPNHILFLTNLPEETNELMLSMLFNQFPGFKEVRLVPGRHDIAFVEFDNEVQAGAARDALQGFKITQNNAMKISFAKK
U1 snRNP (lacking the Sm ring), reconstituted, sequence (P09234 whole entry, chain 3 of 3): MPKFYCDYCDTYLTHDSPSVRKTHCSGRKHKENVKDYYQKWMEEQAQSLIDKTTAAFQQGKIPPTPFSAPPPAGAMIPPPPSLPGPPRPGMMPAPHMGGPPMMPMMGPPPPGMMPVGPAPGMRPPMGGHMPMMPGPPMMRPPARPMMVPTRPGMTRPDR

B1: ZNF207 full-length, recombinant (natural protein)
chain: not shown
Question: Does B1 bind [1]?
Answer: binds

B2: ZNF207 1–122 (ZnF+Hel), recombinant (domain or fragment)
chain: not shown
Question: Does B2 bind [1]?
Answer: binds

Question: Does B2 bind [2]?
Answer: binds

Source: publication PMC12952242 (Molecular cell, 2025)
